Laboratory results: patent US20120156198A1 (Hoffmann-La Roche, published 2012)
Substitutions are numbered along the chain they refer to. Where “and” joins values, the source holds several entries; their conditions need not be identical. Equal values may be shown once. Values belong to the binder of their own block, whether it stands above or below them.

Columns and labels:
[1] = molecular target: T1, human IL-18Rα (IL-18R1) on human cells (KG-1 cells, PBMC, TH1-cultured T cells, whole blood) (human, UniProt Q13478 19-541); test: cell-based or functional assay
T1 sequence: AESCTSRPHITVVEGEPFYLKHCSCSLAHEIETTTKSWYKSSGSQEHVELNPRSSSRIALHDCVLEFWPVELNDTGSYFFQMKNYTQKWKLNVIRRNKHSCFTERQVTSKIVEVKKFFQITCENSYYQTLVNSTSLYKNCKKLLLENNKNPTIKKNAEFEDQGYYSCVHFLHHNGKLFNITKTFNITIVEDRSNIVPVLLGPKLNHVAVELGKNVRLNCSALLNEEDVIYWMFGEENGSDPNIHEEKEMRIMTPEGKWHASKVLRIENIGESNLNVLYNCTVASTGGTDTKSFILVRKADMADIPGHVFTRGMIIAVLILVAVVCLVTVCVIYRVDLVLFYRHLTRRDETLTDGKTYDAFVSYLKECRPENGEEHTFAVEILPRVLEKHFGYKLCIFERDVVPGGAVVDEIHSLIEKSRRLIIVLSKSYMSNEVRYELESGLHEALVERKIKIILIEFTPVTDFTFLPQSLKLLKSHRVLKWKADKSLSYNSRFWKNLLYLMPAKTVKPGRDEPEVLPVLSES

[2] = molecular target: T2, recombinant human IL-18Rα Fc chimera (R&D Systems, Cat. No. 816-LR) (human, UniProt Q13478 19-329); test: SPR (BIACORE), 37°C, antibody captured, hIL-18Rα hFc chimera in solution
T2 construct: Bought protein; also called hIL-18Rα (hFc-chimera R&D-Systems 816-LR); recombinant human IL-18Rα-Fc fusion protein; not shown: human Fc of the commercial chimera
T2 sequence: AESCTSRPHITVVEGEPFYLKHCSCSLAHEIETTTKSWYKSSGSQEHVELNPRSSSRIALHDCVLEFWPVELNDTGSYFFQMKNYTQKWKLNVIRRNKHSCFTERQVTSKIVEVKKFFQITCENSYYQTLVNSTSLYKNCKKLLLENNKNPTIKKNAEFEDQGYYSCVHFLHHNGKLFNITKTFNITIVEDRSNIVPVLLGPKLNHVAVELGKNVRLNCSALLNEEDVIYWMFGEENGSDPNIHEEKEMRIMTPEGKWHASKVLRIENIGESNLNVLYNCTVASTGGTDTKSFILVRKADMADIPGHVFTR
Description: (§1) Coupling: amine coupling Buffer: 1×PBS (10×PBS, Ambion cat. AM9625), pH 7.4, 37° C. […] Association was measured by a hIL-18Rα-injection of 1.5 minutes at 37° C.; dissociation was measured by washing the chip surface with buffer for 10 minutes at 37° C. For calculation of apparent KD and other kinetic parameters the Langmuir 1:1 model was used.

[3] = molecular target: T2, recombinant human IL-18Rα Fc chimera …; test: SPR (BIACORE), 37°C, antibody captured, hIL-18Rα hFc chimera in solution; apparent KD, Langmuir 1:1
Description: as §1

[4] = molecular target: T2, recombinant human IL-18Rα Fc chimera …; test: competition ELISA: inhibition of biotinylated IL-18 (+IL-18Rβ) binding to captured IL-18Rα Fc chimera
Description: The test was performed on 384 well microtiter plates at room temperature (RT). After each incubation step plates were washed 3 times with PBST (Phosphate Buffered Saline Tween®-20). At the beginning, plates were coated with 0.5 μg/ml goat anti-human IgG Fc fragment (Jackson 1 mm. Res., US, Cat. No. 109-006-170) for at least 2 hours (h). Thereafter the wells were blocked with PBS supplemented with 0.1% Tween®-20 and 2% BSA (Roche Diagnostics GmbH, DE) for 1 h. 0.2 μg/ml of recombinant human IL-18Rα Fc chimera (R&D Systems, UK, Cat. No. 816-LR) was captured for 1 h. Dilutions of purified antibodies in PBS with 0.5% BSA and 0.05% Tween®-20 were incubated with the receptor protein for 1 h. Biotinylated human IL-18 (MBL International, US, Cat. No. B003-5) and 0.2 μg/ml IL-18R13 (R&D Systems, UK, Cat. No. 118-AP) were added for an additional hour to build up the trimeric complex. IL-18 was biotinylated with Sulfo-NHS-LC-Biotin (Thermo Scientific Pierce, US, Cat. No. 21327) according to the manufacturer's protocol and purified using Zeba™ Desalt Spin Column (Thermo Scientific Pierce, US, Cat. No. 89889). Binding of the biotinylated IL-18 to the complex was detected with 1:2000 diluted streptavidin HRP (Roche Diagnostics GmbH, DE, Cat. No. 11089153001). […] Absorbance was measured at 370 nm. […]

IL-18 induced IFNγ production in human PBMC, IC50 [ng/ml] [1]: 0.76 ng/mL
koff [2]: 0.0002 s⁻¹
kon [2]: 8.2e+06 M⁻¹ s⁻¹
t1/2 [2]: 0.967 h
Kd [3]: 27 pM
IC50 [4]: 0.022 µg/mL and 0.15 nM
B1: Mab 1G12 (antibody, V domains shown)
VH: QVQLQQPGAELVKPGASVRMSCKTSDYTFTSNWMHWVKQRPGQGLEWIGTIDPSDSYTYYNQKFKGRATLTVDTSSSTAYMQLSSLTSEDSAVYYCTTSGDYDADRYFDVWGAGTTVTVSS
VL: DIVLTQSPASLGVSLGQRATISCRASKSVSTSGDSYMHWYQQKPGQSPKLLIYLASNLESGVPARFSGSGSGTDFTLNIHPVEEEDAATYYCQQSRELPLSFGAGTKLELK
notes: Monoclonal antibody from immunized NMRI mice; detected with anti-mouse IgG1-PE / anti-mouse IgG; also called F20.1G12; monoclonal antibody 1G12

IL-18 induced IFNγ production in human PBMC, IC50 [ng/ml] [1]: 1.71 ng/mL
koff [2]: 0.00019 s⁻¹
kon [2]: 7e+06 M⁻¹ s⁻¹
t1/2 [2]: 1.03 h
Kd [3]: 27 pM
IC50 [4]: 0.029 µg/mL and 0.19 nM
B2: Mab 2D11 (antibody, V domains shown)
VH: B1 VH with R19K, T24A, R67K, Q82H
VL: B1 VL
notes: Monoclonal antibody from immunized NMRI mice; detected with anti-mouse IgG1-PE / anti-mouse IgG; also called F20.2D11
